This assay deals with Gag of the HIV-1 YP- mutant (HIV-1 (pNL4-3)).

This is an account of results in article PMC3751857.

As to “Flag-DUb-TSG101 (from UniProt P10220 15-260)”, the release of HIV-1 YP- virus from 293T cells co-expressing Flag-DUb-TSG101 (Figure 2A, lane 3); inactive DUb*-TSG101 and DUb-TSG101 M95A had no effect was above 95%.
